# According to the supplement of paper PMC9170038:
# Tested on: MS2 coat protein
# Assay: apparent KD of MS2 coat protein; designed switch direction (-1 OFF switch, 1 ON switch): -1; higher = weaker reporter binding
# Procedure, shortened: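 Three titration conditions were used: no input, 200 uM small-molecule ligand, and an oligonucleotide input. In each, SNAP-549-labelled MS2 coat protein was raised from 0.7 or 1.5 nM, doubling, to 3 µM over designed RNA switches transcribed on Illumina chips by stalled E. coli RNA polymerase. Curve fits of normalised cluster fluorescence gave values whose per-design median over clusters is the apparent KD.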
# [1] = Eterna round: R95, input ligand: FMN 200 uM
# [2] = Eterna round: R95, input ligand: microRNA oligo, concentration not stated
# [3] = Eterna round: R95, input ligand: none
# [4] = input ligand: microRNA oligo, concentration not stated
Sequence,apparent KD of MS2 coat protein (input ligand: FMN 200 uM) [nM],apparent KD of MS2 coat protein (input ligand: none) [nM],apparent KD of MS2 coat protein [1] [nM],apparent KD of MS2 coat protein [2] [nM],apparent KD of MS2 coat protein [3] [nM],apparent KD of MS2 coat protein [4] [nM]
"AAUUUACAUGAGGAUCACCCAUGUGAGGAUAUAUAUAUAUAUUUGUUAUUGUGUGUGUGUAGAAGGCGCGUGAU [JR_Exc1_Sub034] (Eterna round: R97, puzzle: Exclusion 1)",33.3,42.2,,,,
"AAUUUACAUGAGGAUCACCCAUGUGAGGAUAUAUGCAAAUAAUUUUUAUUAAUAAAGCAUAGAAGGCGCGUGAU [JR_Exc1_Sub042] (Eterna round: R97, puzzle: Exclusion 1)",188,73,,,,
"AAUUUGCAAGCGAGAUCCCACAUGAGGAUCACCCAUGUGCUCGUCUUAUAAGGUACUGUGACGAAAGUCACGGUACC [Mat - Sensor, turn-off var - Eli Mod - D92] (Eterna round: R97, puzzle: Sensor, turn-off variant 1)",16.4,12.9,,,,
"AAUUUGUCAGGAUAUUGUUAGUUUAGUUGUUUGUAUUAGUUCGAGAAGGGACAUGAGGAUCACCCAUGUGAAAA [Ex4 #70] (Eterna round: R97, puzzle: Exclusion 4)",39.2,53.4,,,,
"ACAAGAAUUUUGCUCGUAAAGUAGGAACGCGAGAGCGGGACAUGAGGAUCACCCAUGUAGAGGCAGUUGGUGGAGAU [JR_SV3TOV2_Sub029] (puzzle: Sensor v3, turn-off variant 2)",,,42.2,56,43.4,
"ACAAGCAAGACAGGAUAUACGAAGCACGUUGUGGUCUGUGACAUGAGGAUCACCCAUGUGUGAGAGUAGAAGGGUUUUGAUCCC [Edarenraat] (Eterna round: R96, puzzle: Exclusion NG 2)",1140,828,,,,685
"ACAAGCAGAGGUGUGCGACACAUGAGGAUCACCCAUGUCGUCUGCCUCUGUGCAGAGGCUUUUUGCUCGUACUUAUU [Sensor V1 S3] (Eterna round: R97, puzzle: Sensor, turn-off variant 1)",20.1,19.3,,,,
"ACAAGCUAUCUCUUAUCUUACAUGAGGAUCACCCAUGUUUUUUCAAUUUUGUUUGGUCUCCUUUGUGCUCGUCUUAU [JR_STOV1_Sub053] (Eterna round: R97, puzzle: Sensor, turn-off variant 1)",53.2,55.2,,,,
"ACAAGCUGGCUCGUCUUAUACAUGAGGAUCACCCAUGUUCUCAAGGUCUUAUGUACUGACACGAAAGUGUUAGUAAU [AK-miRNA-r3-2] (Eterna round: R97, puzzle: Sensor, turn-off variant 1)",29.8,30.2,,,,
"ACAAGCUUAAAAGGUGAUAACAUGAGGAUCACCCAUGUUCGUCUUAUAAAGAUCCUAUGUCGAAAGACGUAGGAUCA [Sensor 3, v1 - 69] (puzzle: Sensor v3, turn-off variant 1)",,,21.2,28,22,
"ACAAGCUUUGAUAUCCUUAACAUGAGGAUCACCCAUGUUCGUCUUAUGAUGGUCUGAUCCCUGAGGAUCGGACCGUU [JL-sv1-2.08 Brourd Mod] (puzzle: Sensor v3, turn-off variant 1)",,,33.7,96.2,35.5,
"ACAAGCUUUGUUGGGUGGUACAUGAGGAUCACCCAUGUUUGCCGCGUCUUGUGGGCCCGGGCCCGCGGCCCGGGCCC [-41.8, -63.9, A 12%] (Eterna round: R97, puzzle: Sensor, turn-off variant 1)",403,460,,,,
"ACAAGCUUUGUUGUGGGUGACAUGAGGAUCACCCAUGUUUGCCGCGUCUUGUGGGCCCGGGCCCGCGGCCCGGGCCC [-42.5, -64.4, A 12%] (Eterna round: R97, puzzle: Sensor, turn-off variant 1)",202,173,,,,
"ACAAGCUUUUAGAUUUUCAACAUGAGGAUCACCCAUGUUCGUCUUGGGCUAGUGCGAGUGCGGUGUACUCGUAUUAG [JL TOV1 3.83 sellena mod] (Eterna round: R97, puzzle: Sensor, turn-off variant 1)",23.2,23.4,,,,
"ACAAGCUUUUCGAUCCUCCACAUGAGGAUCACCCAUGUGCUCGACUUGUAAAGUACUAUCACGAAAGUGAUAGUACA [Sensor, turn off variant 1 v.1] (Eterna round: R97, puzzle: Sensor, turn-off variant 1)",455,629,,,,
"ACAAGCUUUUUGCAUGUUAGGUUUGUUGCUUCGUAUGUAACAUGAGGAUCACCCAUGUAUUACUGAUGUCGUCGUUU [JR_SV3TOV2_Sub089] (puzzle: Sensor v3, turn-off variant 2)",,,18.4,17.2,18.2,
"ACAAGCUUUUUGUUCGUCUUAUAAUAAUAAAUAAAUAUAACAUGAGGAUCACCCAUGUUGAGAAGACGGCCUCAUGU [Sesor Array 22 - Jieux - Sensor v3, turn-off variant 2] (puzzle: Sensor v3, turn-off variant 2)",,,134,31.8,203,
"ACAAUUAUGACAGGAUAUAGUUUUUGUUGGUCACUAGAAGGGUCUAUGCACAUGAGGAUCACCCAUGUUCUUUUUAUUUGCGAU [JR_ExcNG1_Sub017] (Eterna round: R96, puzzle: Exclusion NG 1)",29.9,39.9,,,,27.1
"ACACAACAUGAGGAUCACCCAUGUCAGGAUAUGCAGAACAAGAACAAGACAAGACAGAGCAGAAGGGACAACAC [Ex 1 M5] (Eterna round: R96, puzzle: Exclusion 1)",49,36.3,,,,29.6
ACACAACAUGAGGAUCACCCAUGUCAGGAUAUGCAGAACAAGAACAAGACAAGACAGAGCAGAAGGGACAACAC [Ex 1 M5] (puzzle: Exclusion 1),,,,32.8,,
"ACACAAGCCCUUUGCUCGUUUUAAUACAGCGGGCUCUCCACAUGAGGAUCACCCAUGUAGGCCUUGUUCCAAGGCCG [Maerarce] (puzzle: Sensor v3, turn-off variant 2)",,,22.6,22.3,21.8,
"ACACACAGAGGAUAUCUUCCGCAUGACAUGAGGAUCACCCAUGUGUGCAUGCCCAAAGGUAGAGAAGGCUGUGUGU [eternacac ex5r4 #4] (Eterna round: R97, puzzle: Exclusion 5)",24.9,22.2,,,,
"ACACUACAUGUAGGAUAUGCGUGGCGAAGCUAUGCAGAAGGACAUGAGGAUCACCCAUGUUUUAGCGUCUGCGUACAGAUGCGU [JL ENG1 1.46] (Eterna round: R96, puzzle: Exclusion NG 1)",44.7,19.3,,,,16.4
"ACAGGCUUUUUGCUCGUCUACAUGAGGAUCACCCAUGUGGGAUUGUUGGUUGUGUUGCUUGUUUGUGCUCGUCUUGU [Low Nucleotide] (Eterna round: R97, puzzle: Sensor, turn-off variant 1)",16.1,17.6,,,,
